Measured values: publication PMC12569377, “P-Rex1 limits the agonist-induced internalization of GPCRs independently of its Rac-GEF activity” (Cell Reports, 2025)

Assays:
[1] = target: T1, GST-Grk2 (Homo sapiens, UniProt P25098); experiment: ADP-Glo kinase assay with tubulin; format: biochemical; details: […] ATP, […] pig brain tubulin, […] MgCl2, pH […] °C; no P-Rex1
T1 construct: recombinant GST fusion from Sf9 cells, commercial
T1 sequence (P25098 1-689): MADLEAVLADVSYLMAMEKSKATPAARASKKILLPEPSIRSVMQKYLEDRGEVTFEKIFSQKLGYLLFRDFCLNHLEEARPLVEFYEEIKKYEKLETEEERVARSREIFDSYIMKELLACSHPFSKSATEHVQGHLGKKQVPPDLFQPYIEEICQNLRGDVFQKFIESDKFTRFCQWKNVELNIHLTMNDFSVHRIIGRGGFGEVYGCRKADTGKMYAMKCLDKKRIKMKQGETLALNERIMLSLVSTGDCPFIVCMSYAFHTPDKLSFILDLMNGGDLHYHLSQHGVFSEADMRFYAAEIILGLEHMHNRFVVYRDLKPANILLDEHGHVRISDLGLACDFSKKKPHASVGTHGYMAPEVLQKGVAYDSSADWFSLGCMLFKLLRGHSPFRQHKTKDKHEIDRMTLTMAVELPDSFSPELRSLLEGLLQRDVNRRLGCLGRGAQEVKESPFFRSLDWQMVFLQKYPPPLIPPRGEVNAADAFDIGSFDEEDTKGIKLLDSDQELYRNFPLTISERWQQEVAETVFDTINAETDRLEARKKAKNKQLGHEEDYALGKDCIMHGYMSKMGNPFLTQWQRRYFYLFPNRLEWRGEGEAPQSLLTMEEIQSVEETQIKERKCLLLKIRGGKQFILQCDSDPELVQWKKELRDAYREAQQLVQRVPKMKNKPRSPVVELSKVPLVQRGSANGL

[2] = target: T2, Recombinant human wild type His-P-Rex2 (human, UniProt Q70Z35 1-1606); experiment: pull-down; 5 pmol P-Rex1 or P-Rex2 protein (2.5 pmol for P-Rex1 mutants) with 5 pmol GST, GST-Grk2 or GST-Grk5 in 20 μL detergent-free buffer (50 mM HEPES pH 7.2, 150 mM NaCl), 1 h on ice; GST proteins isolated on magnetic glutathione agarose, 45 min at 4°C, 4 washes in lysis buffer 2 (1% NP-40); western blot with P-Rex1 or P-Rex2 and GST antibodies; details: both partners purified
T2 construct: source: baculovirus-infected Sf9 cells, purified (Ni-NTA agarose, PD-10 desalting); not shown: 6His, N-terminal, kept

[3] = target: T3, GEF-dead EE-P-Rex1 (E56A, N238A) (human, UniProt Q8TCU6 1-1659, E56A | N238A); experiment: as above; details: both partners purified
T3 construct: P-Rex1, human, with point mutations E56A and N238A in the DH domain that abolish Rac-GEF activity; also called GEF-dead P-Rex1; source: baculovirus-infected Sf9 cells, purified using the EE tag

[4] = target: T4, GEF-dead His-P-Rex2 (P-Rex2 E30A,N212A) (human, UniProt Q70Z35 1-1606, E30A | N212A); experiment: as above; details: both partners purified
T4 construct: P-Rex2, human, with alanine mutations at Glu30 and Asn212 in the catalytic DH domain; also called GEF-dead P-Rex2; source: baculovirus-infected Sf9 cells, purified (Ni-NTA agarose, PD-10 desalting); not shown: 6His, N-terminal, kept

[5] = target: T5, Recombinant human wild type EE-P-Rex1 (human, UniProt Q8TCU6 1-1659); experiment: pull-down; as the GST-Grk2 pull-down of EE-P-Rex1, with increasing concentrations of prenylated EE-Gβ1γ2 (up to 20 pmol per sample) added during the binding assay; 0.008% cholate in all samples; details: both partners purified
T5 construct: source: baculovirus-infected Sf9 cells, purified using the EE tag
T5 sequence (Q8TCU6 whole entry): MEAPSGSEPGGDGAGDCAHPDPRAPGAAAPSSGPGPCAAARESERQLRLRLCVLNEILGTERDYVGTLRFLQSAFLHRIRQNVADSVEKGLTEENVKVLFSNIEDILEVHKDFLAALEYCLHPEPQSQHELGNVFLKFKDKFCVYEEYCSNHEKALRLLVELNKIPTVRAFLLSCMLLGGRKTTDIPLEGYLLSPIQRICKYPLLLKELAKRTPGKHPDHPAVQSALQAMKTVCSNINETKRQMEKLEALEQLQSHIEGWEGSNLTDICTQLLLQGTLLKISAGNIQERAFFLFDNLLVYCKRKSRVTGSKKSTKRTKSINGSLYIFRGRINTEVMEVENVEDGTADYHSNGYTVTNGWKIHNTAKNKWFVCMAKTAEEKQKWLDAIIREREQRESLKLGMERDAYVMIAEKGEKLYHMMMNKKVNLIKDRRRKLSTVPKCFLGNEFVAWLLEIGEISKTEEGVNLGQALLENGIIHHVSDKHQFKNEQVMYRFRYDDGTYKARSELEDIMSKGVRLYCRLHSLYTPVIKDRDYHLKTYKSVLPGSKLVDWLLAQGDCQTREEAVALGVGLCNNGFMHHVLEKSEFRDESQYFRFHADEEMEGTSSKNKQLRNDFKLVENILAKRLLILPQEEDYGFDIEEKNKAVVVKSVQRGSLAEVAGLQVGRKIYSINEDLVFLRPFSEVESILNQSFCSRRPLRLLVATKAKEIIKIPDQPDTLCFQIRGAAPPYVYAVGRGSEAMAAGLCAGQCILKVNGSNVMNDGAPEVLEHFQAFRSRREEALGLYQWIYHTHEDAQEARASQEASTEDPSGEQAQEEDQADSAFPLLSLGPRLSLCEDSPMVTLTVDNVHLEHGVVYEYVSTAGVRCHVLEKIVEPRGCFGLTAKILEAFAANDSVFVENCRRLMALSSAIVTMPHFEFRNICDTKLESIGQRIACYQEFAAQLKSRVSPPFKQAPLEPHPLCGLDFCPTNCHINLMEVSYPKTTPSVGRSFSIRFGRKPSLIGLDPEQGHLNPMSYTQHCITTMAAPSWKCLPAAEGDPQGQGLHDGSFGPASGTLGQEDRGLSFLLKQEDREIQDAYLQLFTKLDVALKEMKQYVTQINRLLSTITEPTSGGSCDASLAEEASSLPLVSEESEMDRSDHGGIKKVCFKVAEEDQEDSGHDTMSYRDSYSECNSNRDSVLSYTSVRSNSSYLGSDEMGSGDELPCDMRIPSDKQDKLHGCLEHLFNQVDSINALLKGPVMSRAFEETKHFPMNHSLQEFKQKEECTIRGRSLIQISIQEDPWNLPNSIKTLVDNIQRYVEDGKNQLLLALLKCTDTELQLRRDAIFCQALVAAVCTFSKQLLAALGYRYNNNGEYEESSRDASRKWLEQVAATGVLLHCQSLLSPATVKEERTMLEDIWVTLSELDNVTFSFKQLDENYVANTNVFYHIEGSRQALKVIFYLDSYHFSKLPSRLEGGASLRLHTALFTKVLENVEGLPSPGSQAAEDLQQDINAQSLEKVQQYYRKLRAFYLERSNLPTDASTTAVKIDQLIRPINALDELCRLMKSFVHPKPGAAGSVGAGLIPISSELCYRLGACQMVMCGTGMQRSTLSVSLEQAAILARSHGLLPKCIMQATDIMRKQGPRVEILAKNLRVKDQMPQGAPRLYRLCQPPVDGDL

T4 sequence (Q70Z35 whole entry E30A/N212A, the tested form may be a part): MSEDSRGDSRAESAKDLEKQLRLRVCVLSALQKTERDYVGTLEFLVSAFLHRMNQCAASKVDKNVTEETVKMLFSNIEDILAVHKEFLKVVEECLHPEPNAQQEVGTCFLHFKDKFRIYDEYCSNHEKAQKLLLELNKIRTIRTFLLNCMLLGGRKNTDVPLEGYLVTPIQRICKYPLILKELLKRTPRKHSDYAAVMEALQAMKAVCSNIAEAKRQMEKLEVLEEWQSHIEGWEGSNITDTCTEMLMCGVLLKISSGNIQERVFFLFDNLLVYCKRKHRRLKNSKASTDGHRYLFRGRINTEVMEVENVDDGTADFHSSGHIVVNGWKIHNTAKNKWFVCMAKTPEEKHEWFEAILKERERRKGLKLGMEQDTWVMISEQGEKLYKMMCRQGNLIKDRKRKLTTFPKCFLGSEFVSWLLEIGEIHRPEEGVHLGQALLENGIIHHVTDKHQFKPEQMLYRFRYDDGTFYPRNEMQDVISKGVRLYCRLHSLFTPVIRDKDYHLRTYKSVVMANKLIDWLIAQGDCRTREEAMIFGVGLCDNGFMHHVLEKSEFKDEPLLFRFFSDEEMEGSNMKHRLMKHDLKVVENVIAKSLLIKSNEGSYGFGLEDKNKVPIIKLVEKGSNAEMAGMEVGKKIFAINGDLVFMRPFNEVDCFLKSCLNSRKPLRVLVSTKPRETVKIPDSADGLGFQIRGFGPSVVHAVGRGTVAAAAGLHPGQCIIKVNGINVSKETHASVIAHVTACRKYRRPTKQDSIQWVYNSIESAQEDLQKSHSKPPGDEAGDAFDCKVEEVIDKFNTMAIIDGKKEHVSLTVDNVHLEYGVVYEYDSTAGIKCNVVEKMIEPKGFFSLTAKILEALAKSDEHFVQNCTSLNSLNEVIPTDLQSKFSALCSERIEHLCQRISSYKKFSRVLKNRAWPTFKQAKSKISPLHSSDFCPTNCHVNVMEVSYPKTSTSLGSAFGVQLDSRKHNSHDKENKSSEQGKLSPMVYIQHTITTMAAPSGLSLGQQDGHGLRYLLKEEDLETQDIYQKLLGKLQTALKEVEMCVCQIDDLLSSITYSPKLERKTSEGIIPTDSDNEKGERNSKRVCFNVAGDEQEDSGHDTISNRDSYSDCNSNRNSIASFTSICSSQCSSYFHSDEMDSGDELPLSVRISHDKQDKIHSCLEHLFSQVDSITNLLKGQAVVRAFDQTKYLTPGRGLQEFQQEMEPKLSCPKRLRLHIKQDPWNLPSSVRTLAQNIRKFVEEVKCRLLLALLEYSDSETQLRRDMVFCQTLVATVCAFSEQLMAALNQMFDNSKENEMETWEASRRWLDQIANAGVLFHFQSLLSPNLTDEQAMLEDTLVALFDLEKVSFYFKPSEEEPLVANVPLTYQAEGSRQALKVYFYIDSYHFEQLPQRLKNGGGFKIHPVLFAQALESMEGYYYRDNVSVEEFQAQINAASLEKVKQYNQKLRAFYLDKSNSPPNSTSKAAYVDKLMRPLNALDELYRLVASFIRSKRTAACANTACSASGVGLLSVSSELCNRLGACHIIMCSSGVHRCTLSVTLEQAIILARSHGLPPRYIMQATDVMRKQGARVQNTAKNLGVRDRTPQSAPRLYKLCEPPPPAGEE
T2 sequence (Q70Z35 whole entry): as the sequence (Q70Z35 whole entry E30A/N212A, the tested form may be a part) above, with A30E, A212N counted along it
T3 sequence (Q8TCU6 whole entry E56A/N238A, the tested form may be a part): as the sequence (Q8TCU6 whole entry) above, with E56A, N238A counted along it

Nc1ncnc2c1ncn2[C@@H]1O[C@H](COP(=O)(O)OP(=O)(O)OP(=O)(O)O)[C@@H](O)[C@H]1O [ATP]
ADP-Glo kinase assay with tubulin [1]: GST-Grk2 was able to phosphorylate tubulin

B1: Recombinant human GST-Grk2 (enzyme, UniProt P25098 1-689, looked up)
chain: T1 sequence (P25098 1-689)
notes: G protein-coupled receptor kinase 2 (Grk2), human, Sf9 cell-derived recombinant GST fusion; also called G protein-coupled receptor kinase 2; source: bought: Abcam (ab125620), Sf9 cell-derived, purified recombinant
binding result [2]: binds
binding result [3]: binds
binding result [4]: binds
binding result [5]: binds
